Results taken from paper PMC4604684, “Characterisation of the Cullin-3 mutation that causes a severe form of familial hypertension and hyperkalaemia” (EMBO Molecular Medicine, 2015).

Biological target: T1, CUL3^WT-RBX1 complex, purified, tag cleaved (human, UniProt Q13618-1 1-768; P62877 1-108)
T1 construct: Cullin-3, human, wild type; RBX1, human, untagged; The pull-down sections call this protein only CUL3^WT; also called CUL3-RBX1; not shown: DAC, N-terminal, cleaved
Assay: pull-down; purified GST-CAND1 or GST on glutathione-sepharose; incubated with purified CUL3^WT or CUL3^Δ403–459 at 4°C for 1 h; washed thrice; SDS-PAGE, Coomassie
Settings: both partners purified

T1 sequence (Q13618 whole entry, chain 1 of 2): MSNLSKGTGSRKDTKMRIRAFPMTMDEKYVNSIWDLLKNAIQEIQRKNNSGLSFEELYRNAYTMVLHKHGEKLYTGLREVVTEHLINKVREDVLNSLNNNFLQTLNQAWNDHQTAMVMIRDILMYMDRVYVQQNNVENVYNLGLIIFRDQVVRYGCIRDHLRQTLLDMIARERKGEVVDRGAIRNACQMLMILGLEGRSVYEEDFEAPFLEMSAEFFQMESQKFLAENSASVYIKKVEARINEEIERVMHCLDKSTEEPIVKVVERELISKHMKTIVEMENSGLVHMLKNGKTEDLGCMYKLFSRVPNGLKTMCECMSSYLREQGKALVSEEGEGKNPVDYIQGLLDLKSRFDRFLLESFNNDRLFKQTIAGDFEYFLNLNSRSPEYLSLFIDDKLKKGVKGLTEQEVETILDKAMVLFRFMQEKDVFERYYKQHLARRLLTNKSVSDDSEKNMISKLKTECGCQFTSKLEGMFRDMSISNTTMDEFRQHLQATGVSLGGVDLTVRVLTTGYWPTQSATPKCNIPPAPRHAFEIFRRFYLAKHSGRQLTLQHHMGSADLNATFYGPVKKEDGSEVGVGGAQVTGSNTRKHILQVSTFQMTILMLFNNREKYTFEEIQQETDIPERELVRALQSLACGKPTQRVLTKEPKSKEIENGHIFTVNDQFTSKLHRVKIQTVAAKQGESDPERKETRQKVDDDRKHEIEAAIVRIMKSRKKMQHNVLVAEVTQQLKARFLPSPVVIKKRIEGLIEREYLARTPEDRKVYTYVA
T1 sequence (P62877 whole entry, chain 2 of 2): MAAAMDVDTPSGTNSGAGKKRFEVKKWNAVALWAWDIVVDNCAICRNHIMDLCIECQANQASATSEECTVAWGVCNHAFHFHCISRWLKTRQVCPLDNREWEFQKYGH

- binding result: binds
B1: GST-CAND1 (natural protein, human, UniProt Q86VP6-1 1-1230, looked up)
chain: MASASYHISNLLEKMTSSDKDFRFMATNDLMTELQKDSIKLDDDSERKVVKMILKLLEDKNGEVQNLAVKCLGPLVSKVKEYQVETIVDTLCTNMLSDKEQLRDISSIGLKTVIGELPPASSGSALAANVCKKITGRLTSAIAKQEDVSVQLEALDIMADMLSRQGGLLVNFHPSILTCLLPQLTSPRLAVRKRTIIALGHLVMSCGNIVFVDLIEHLLSELSKNDSMSTTRTYIQCIAAISRQAGHRIGEYLEKIIPLVVKFCNVDDDELREYCIQAFESFVRRCPKEVYPHVSTIINICLKYLTYDPNYNYDDEDEDENAMDADGGDDDDQGSDDEYSDDDDMSWKVRRAAAKCLDAVVSTRHEMLPEFYKTVSPALISRFKEREENVKADVFHAYLSLLKQTRPVQSWLCDPDAMEQGETPLTMLQSQVPNIVKALHKQMKEKSVKTRQCCFNMLTELVNVLPGALTQHIPVLVPGIIFSLNDKSSSSNLKIDALSCLYVILCNHSPQVFHPHVQALVPPVVACVGDPFYKITSEALLVTQQLVKVIRPLDQPSSFDATPYIKDLFTCTIKRLKAADIDQEVKERAISCMGQIICNLGDNLGSDLPNTLQIFLERLKNEITRLTTVKALTLIAGSPLKIDLRPVLGEGVPILASFLRKNQRALKLGTLSALDILIKNYSDSLTAAMIDAVLDELPPLISESDMHVSQMAISFLTTLAKVYPSSLSKISGSILNELIGLVRSPLLQGGALSAMLDFFQALVVTGTNNLGYMDLLRMLTGPVYSQSTALTHKQSYYSIAKCVAALTRACPKEGPAVVGQFIQDVKNSRSTDSIRLLALLSLGEVGHHIDLSGQLELKSVILEAFSSPSEEVKSAASYALGSISVGNLPEYLPFVLQEITSQPKRQYLLLHSLKEIISSASVVGLKPYVENIWALLLKHCECAEEGTRNVVAECLGKLTLIDPETLLPRLKGYLISGSSYARSSVVTAVKFTISDHPQPIDPLLKNCIGDFLKTLEDPDLNVRRVALVTFNSAAHNKPSLIRDLLDTVLPHLYNETKVRKELIREVEMGPFKHTVDDGLDIRKAAFECMYTLLDSCLDRLDIFEFLNHVEDGLKDHYDIKMLTFLMLVRLSTLCPSAVLQRLDRLVEPLRATCTTKVKANSVKQEFEKQDELKRSAMRAVAALLTIPEAEKSPLMSEFQSQISSNPELAAIFESIQKDSSSTNLESMDTS
notes: CAND1, human, ORF amplified from an EST IMAGE clone and subcloned into pGEX6P-2; source: E. coli BL21, purified (glutathione resin, eluted with glutathione, dialysed); not shown: GST, N-terminal, kept
